From the DeepSol protein solubility set

Assay: soluble on expression in E. coli; label from the status in PepcDB or PDB records
With “MYADEVDKDRRTFKKNFSSARGSGIDGKWKRDMFQTANRSPKQNFTTKRRAQTNFVTKAGAAAAGLATRNISTASIRGRTAPAVVREIHTGPSTLIIKNLATTVTQEDLEELFEQYEPELVQLHYGPTGESNGCADLIVPHAQVAIIQKALEGVLLDGEPIEVLEANPPKQVSVFDRIKKVSRGNDFKAKNMRVVVKSKGGFQKRGARGDF” the “soluble on expression in E. coli” value was “not soluble”. With “MRVKTIMTQNPVTITLPATRNYALELFKKYKVRSFPVVNKEGKLVGIISVKRILVNPDEEQLAMLVKRDVPVVKENDTLKKAAKLMLEYDYRRVVVVDSKGKPVGILTVGDIIRRYFAKSEKYKGVEIEPYYQRYVSIVWEGTPLKAALKALLLSNSMALPVVDSEGNLVGIVDETDLLRDSEIVRIMKSTELAASSEEEWILESHPTLLFEKFELQLPNKPVAEIMTRDVIVATPHMTVHEVALKMAKYSIEQLPVIRGEGDLIGLIRDFDLLKVLVKSKA” the “soluble on expression in E. coli” value was “soluble”. In the case of “MGSDKIHHHHHHMMTLTVEYYFTHPQDKLGMYASDPEDNSQEHGHEFAELVIVEEGHGLHVINGRPLYIQQGDVFYVQPGDVHYYDELGTLKLINVLINPAVAFGYLQQMEGLLQQLSAQRAACYGWLAPETRSYCRELVEKIFSPALRAADNTPLRESLFFQLVTTILTAESEAEYSSTRYKLHKLLTWLQEHCFEEHNWQQLAEQFHLTTRTAFRHIKEATGLTPDNYLKRLRLVSARVKLRETEMTITEVAYLCGFANSNHFTTLYKKVFGLTPSADRRRPPG”, the “soluble on expression in E. coli” value is reported as “not soluble”. In the case of “MSILVTRPSPAGEELVSRLRTLGQVAWHFPLIEFSPGQQLPQLADQLAALGESDLLFALSQHAVAFAQSQLHQQDRKWPRLPDYFAIGRTTALALHTVSGQKILYPQDREISEVLLQLPELQNIAGKRALILRGNGGRELIGDTLTARGAEVTFCECYQRCAIHYDGAEEAMRWQAREVTMVVVTSGEMLQQLWSLIPQWYREHWLLHCRLLVVSERLAKLARELGWQDIKVADNADNDALLRALQLEHHHHHH”, the “soluble on expression in E. coli” value is reported as “not soluble”. In the case of “MSLSQPNFYQRTHIPYTAYTPEIFQEFVDDYIDSLNSSFVPVKGIHEEQVRDEAVKLYNQLSDSLGVHRPPFPNPRVKTMVFTPFISMVGVTGSMGPFFCEFTLNGDLLPINYPATYTHELAHLLGISSEAEANFYAYQVCTRSQIKGIRFSGYFSILNHVLGNARRLLSEKEYADIINRIRPEIIELAKKNQEYWMAKYSPLIGDVQNWIYDLYLKGNKIESGRKNYSEVIGLLISYQVWKAKTASDEGHHHHHH”, the “soluble on expression in E. coli” value is reported as “soluble”. In the case of “MGCSGGDATACANLAQMYENKKNADSNDKENALQLYAVACQGGDMLACNNLGWMFANGSGVPKDYYKAISYYKFSCENGNDMGCYNLGLMSNVNNIYGIDKAQLSQVDLNYLACNAGDMMGCANLGWIYANGDLGAPLNNHYAAKYFQMACDGGILGSCNNLGVLYQKGLGVPQDDQRALDLFSYACDNGFESSCRNYGNFKEHLLRVNPNYGRLFMPYNSYDIPLEHHHHHH”, the “soluble on expression in E. coli” value is reported as “not soluble”. With “SSTKVPIYLKRGSRKGKKEKLRDLLSSDMISPPLGDFRHTIHIGSGGGDDMFGDISFLQGKFHLLPGTAVEEAEEDGSFDLPFQFTRTTTVCGRELPDGLSPLLKNAISLPVIGGPQALTLPTAQAPPKPPRLHLESPQPSPQPSPQGAGNVDVWRIPEAGSPHNGMSPEPEAEEPFLSHASSLLSLHVDLGPSILDDVLQIMDHDLGRVQIPT” the “soluble on expression in E. coli” value was “soluble”. With “GSHMDASKIDQPDLAEVANASLDKKQVIGRISIPSVSLELPVLKSSTEKNLLSGAATVKENQVMGKGNYALAGHNMSKKGVLFSDIASLKKGDKIYLYDNENEYEYAVTGVSEVTPDKWEVVEDHGKDEITLITCVSVKDNSKRYVVAGDLVGTKAKK” the “soluble on expression in E. coli” value was “soluble”. With “MLKLYLPCCRNNSTFAIRFSYASIAVDLILKIRQYMKRLHWILLLMILLIPTESISAKKKTEKSDREIWCDVMYRMAAPVLSNMSEGLLKQNMLVELSPTWDGRNQNVTYMECFGRLMAGLAPWLSLPDDETPEGLQRKQLREWALKSYANAVDPASPDYLLWRQENQTLVDAAFLAESFLRSYDALWMPLDSITKQRYIAEFTDLRRVDPSYSNWLLFSATVESFLRKAGAPSDTYRISSSLRKIEEWYVGDGWYSDGPRFAFDYYNSFVIHPMYIEALEIITEAGKREKIGNMPGCNFHEAIRRAQRFGVILERLISPEGTLPVFGRSITYRTGSLQTLALLAWRNWLPEELSNGQVRAAMTAVIQRMFGDGRNFNTAGFLTLGFNGSQPGISDYYTNNGSLYMASLAFLPLGLSADDPFWTDASQSWTSKKAWEGEEFPKDHSYHKELEHHHHHH” the “soluble on expression in E. coli” value was “not soluble”. For “EMEEREIINNVFEFGDMQAKNAMVQRIDMVAIDMEDSYDEIIQVFKTEKLSRMPVYEETIDDIVGILNIKDIIFLSDEEIESFDIKNYMREPFFTYEFKKITQLLEEMKLEKSQMAIVVDEYGGTSGLLTIEDLVEVIVGDIE”, the “soluble on expression in E. coli” value was “soluble”. With “SRRRRSGTEPEKIEPGEGASRSRRDMLKDGGQQGLGTGARDPDKATRFRMEELRLTSTTFALTGDSAHNQAMVHWSGHNSSVILILTKLYDYNLGSITESSLWRSTDYGTTYEKLNDKVGLKTILSYLYVCPTNKRKIMLLTDPEIESSLLISSDEGATYQKYRLNFYIQSLLFHPKQEDWILAYSQDQKLYSSAEFGRRWQLIQESVVPNRFYWSVMGSSKEPDLVHLEARTVDGHSIYLTCRMQNCTEANRNKPFPGYIDPDSLIVQDDYVFVQLTSGGRPHYYVSYRRSPFAQMKLPKYALPKDMHVISTDENQVFAAVQEWNQNDTYNLYISDTRGVYFTLALENVQSSRGPEGNVMIDLYEVAGIKGMFLANKKIDNQVKTFITYNKGRDWRLLQAPDADLRGDPVHCLLPYCSLHLHLKVSENPYTSGIIASRDTAPSIIVASGNIGSELSDSDISMFVSSDAGNTWRQIFEEEHSILYLDQGGVLVAMKHTSLPIRHLWLSFDEGRSWSKYSFTSIPLFVDGVLGEPGEETLIMTVFGHFSHRSEWQLVKVDYKSIFDRRCAEEDYRPWQLHSQGEACIMGAKRIYKKRKSERKCMQGKYAGAMESEPCVCTEADFDCDYGYERHSNGQCLPAFWFNPSSLSKDCSLGQSYLNSTGYRKVVSNNCTDGVREQYTAKPQKCP” the “soluble on expression in E. coli” value was “soluble”. With “MEARFAELLAAYCLEAQSGETVLVEAETPALPLLPHLKRALLRRGAYPLIRLSYPGEERDFLLFGGRWLEEVPEAELALYQRADKFLRVLSAENPLEAAAVDPALALRRQRAWRLLQEIRLGKRWALTLYPTVGYAVGAGMGTEEFRAYLERALFLDREDPVAAWQELSRFQEGLIRRLSAAKELRILAPGTDLRLSVAGRTWVNSDGRRNMPSGEVFTGPVEDSAEGEVRFNLPAFVGGRRVKGVYLRFARGQVVKARAKAGKAYLQAALATDEGARRLGEVGIGTNFALDRPTGLVLLDEKMGGTVHLALGRSYPEAGGRNESALHWDLVLSLREGRLLLDGTPLLEAGRFL” the “soluble on expression in E. coli” value was “soluble”. In the case of “AIAAEMKTYSHRTMPSACTLVMCSSVESGLPGRDGRDGREGPRGEKGDPGLPGAAGQAGMPGQAGPVGPKGDNGSVGEPGPKGDTGPS”, the “soluble on expression in E. coli” value is reported as “soluble”. In the case of “MSLTVRFTESVSKQDLDALFEWAKASYGAESCWKTLYLNGLPLGNLSPEWVERVKKDWEAGCSESSDGIFLNADGWPDMGGRLQHLALGWHCAGLLDGWRNECFDLTDGGGNPLFTLERAAFRPFGLLSRAVHLNGLTESDGRWHFWIGRRSPHKAVDPNKLDNTAAGGVSGGEMPSEAVCRESSEEAGLDKTLLPLIRPVSQLHSLRSVSRGVHNEILYVFDAVLPETFLPENQDGEVAGFEKMDIGGLLDAMLSGNMMHDAQLVTLDAFCRYGLIDAAHPLSEWLDGIREGHHHHHH”, the “soluble on expression in E. coli” value is reported as “not soluble”. For “GPGSMLPTVPCFGSQWCIESVMDLSGLVPTSKELTEGQREHIRDLQYEIDEIWNRRGDYKIDSSAWEQMPLFMENITEEDLQRNADCAALASIAYDDVPPEEVAESRKQHGNRAIQLALDPKQVNKENLARATVHCYTEGLAAKCKDPVLNSQLYANRSLAQYIIHNYGHGLEDAQRAIILDPDYYKAYYRAARCAERIGKYDLALDLLAKGRRTNPAPVGRALEDFVDIERVCREGKERAESKKKKENLSTRVKAAQTSSTLRCVTSSGVRCSPRAEVSSEQMGVYGHHEPYFDSEGLLHVPILFMYDEYQQTDFMQDVSCDVCVGELLDELMPFPWDDRGRYQRIDDILVVYKIDGGVKDPKYYEVDLSLPLMEVFRSESYQMPALLPVLHIICKHSDMLTEWDVQMLR”, the “soluble on expression in E. coli” value was “soluble”. For “MISAIILSGGKAERMGGEKSFRKSGNKYLIENIADMLIEMEIPFVTVFKNPRFMEKPEEEIEKQLYYYKKYHQTITWDFVPGMGPLIGMLSGMLNTKSQWVFLVPCDMPFITEESIINLLSFIKEAELNGYDCIVPKHKNGFIEPLFSLYHISSVNVLGMVVEEMLEQNRSFPIRRLIDELNPLYVDVDKIDKTCDIFINLNTLKELENACFDRLEHHHHHH”, the “soluble on expression in E. coli” value was “soluble”. For “MGSHHHHHHDITSLYKKAGSENLYFQMKLRYLNILKEKLGREPTFVELQAFSVMWSEHCGYSHTKKYIRRLPKTGFEGNAGVVNLDDYYSVAFKIESHNHPSAIEPYNGAATGVGGIIRDVLAMGARPTAIFDSLHMSRIIDGIIEGIADYGNSIGVPTVGGELRISSLYAHNPLVNVLAAGVVRNDMLVDSKASRPGQVIVIFGGATGRDGIHGASFASEDLTGDKATKLSIQVGDPFAEKMLIEAFLEMVEEGLVEGAQDLGAGGVLSATSELVAKGNLGAIVHLDRVPLREPDMEPWEILISESQERMAVVTSPQKASRILEIARKHLLFGDVVAEVIEEPVYRVMYRNDLVMEVPVQLLANAPEEDIVEYTPGKIPEFKRVEFEEVNAREVFEQYDHMVGTDTVVPPGFGAAVMRIKRDGGYSLVTHSRADLALQDTYWGTLIAVLESVRKTLSVGAEPLAITNCVNYGDPDVDPVGLSAMMTALKNACEFSGVPVASGNASLYNTYQGKPIPPTLVVGMLGKVNPQKVAKPKPSKVFAVGWNDFELEREKELWRAIRKLSEEGAFILSSSQLLTRTHVETFREYGLKIEVKLPEVRPAHQMVLVFSERTPVVDVPVKEIGTLSR”, the “soluble on expression in E. coli” value was “soluble”. For “KSYASTPELRKTWLDSMARIHVKNGDLSEAAMCYVHVTALVAEYLTRKGVFRQGCTAFRVITPNIDEEASMMEDVGMQDVHFNEDVLMELLEQCADGLWKAERYELIADIYKLIIPIYEKRRDFERLAHLYDTLHRAYSKVTEVMHSGRRLLGTYFRVAFFGQGFFEDEDGKEYIYKEPKLTPLSEISQRLLKLYSDKFGSENVKMIQDSGKVNPKDLDSKYAYIQVTHVIPFFDEKELQERKTEFERSHNIRRFMFEMPFTQTGKRQGGVEEQCKRRTILTAIHCFPYVKKRIPVMYQHHTDLNPIEVAIDEMSKKVAELRQLCSSAEVDMIKLQLKLQGSVSVQVNAGPLAYARAFLDDTNTKRYPDNKVKLLKEVFRQFVEACGQALAVNERLIKEDQLEYQEEMKANYREMAKELSEIMHEQLG”, the “soluble on expression in E. coli” value was “soluble”. In the case of “MGSDKIHHHHHHMSGQCLYILRNRTNWHVNRLRVFTPSQEGGASVCKRTTRRAADTIPRNIDSCCDRVLRNGILRRSRAAPTNRDTNMLHQNNGFHANALLGSLADDSLRALAPHLELVKIKSAQLLCETDEPMRHLYFPTTAMMSVLYLMEDGAMVEVAAVGNEGVVGVSTLADYGCGGASGRIEVRSGGYAYRVSTQVFRREFDRSLDTFQLMLRYWQAAMTQIARGALCNRHHSVSEQLSRWLLLAHDRVEGDELAVTQQTIANMLGVRREGITEAAGKLQEAGLIRQRRGHITVLDREGLEARACECYGVIRGEFNRLILEARRDAHAPQPIPAEGRPLRVAGYHGAVRSAA”, the “soluble on expression in E. coli” value is reported as “not soluble”.
